{"source": "the DeepSol protein solubility set", "data": [{"experiment": "soluble on expression in E. coli; label from the status in PepcDB or PDB records", "values": [{"sequence": "TVNQAKIFAQTTKMLEFAKQLLETDDFSTLREAYYVSKNWGEARFDDQQASNNVIEDLEAALGVLREHLGFIPEEDGSSVVGPLKIIEETPEGELVVDCTKLGTGAYNIPNDVTKLNLETDADFILAIETSGMFARLNAERFWDKHNCILVSLKGVPARATRRFIKRLHEEHDLPVLVFTDGDPYGYLNIYRTLKVGSGKAIHLADKLSIPAARLIGVTPQDIIDYDLPTHPLKEQDIKRIKDGLKNDDFVRSFPEWQKALKQMLDMGVRAEQQSLAKYGLKYVVNTYLPEKIKDESTWLP", "soluble on expression in E. coli": "soluble"}, {"sequence": "MGSDKIHHHHHHMKQIKHTFEEKKKMGGKASMWNLWHGCHKWSEGCRHCYVYRTDGKYGKDSSVVTKTEKFGLPLQKKKNGEYKIPSGNLVYTCFTSDFLIEDVDEWRAEAWEMMRIRQDLHFMFITKRIDRLQQCLPPDWGDGYDNVTICCTMENQDRVDYRLPIYKESPIKHKIIICEPLLSQIDFRGELEGWVEQVVAGGESGKEARVCNYDWVLDIRRQCVEAHVGFWFKQTGSYLLKDGHEYKVARQFQHSQARKAELNYTPEK", "soluble on expression in E. coli": "not soluble"}, {"sequence": "GAMGSGIPMEACPHIRYAFQNDKLLLQQASVGRLTLVNKTTILLRPMKTTTVDLGLYARPPEGHGLMLWGSTSRPVTSHVGIIDPGYTGELRLILQNQRRYNSTLRPSELKIHLAAFRYATPQMEEDKGPINHPQYPGNVGLDVSLPKDLALFPHQTVSVTLTVPPPSIPHHRPTIFGRSGLAMQGILVKPCRWRRGGVDVSLTNFSDQTVFLNKYRRFCQLVYLHKHHLTSFYSPHSDAGVLGPRSLFRWASCTFEEVPSLAMGDSGLSEALEGRQGRGFGSSGQ", "soluble on expression in E. coli": "soluble"}, {"sequence": "ASMGKSAVIFVERATPATLTELKDALSNSILSVRDPWSIDFRTYRCSIKNLPADVSKLMYSITFHHHGRQTVLIKDNSAMVTTAAAADIPPALVFNGSSTGVPESIDTILSSKLSNIWMQRQLIKGDAGETLILDGLTVRLVNLFSSTGFKGLLIELQADEAGEFETKIAGIEGHLAEIRAKEYKTSSDSLGPDTSNEICDLAYQYVRALEL", "soluble on expression in E. coli": "soluble"}, {"sequence": "MLTYGAPFNFPRWIDEHAHLLKPPVGNRQVWQDSDFIVTVVGGPNHRTDYHDDPLEEFFYQLRGNAYLNLWVDGRRERADLKEGDIFLLPPHVRHSPQRPEAGSACLVIERQRPAGMLDGFEWYCDACGHLVHRVEVQLKSIVTDLPPLFESFYASEDKRRCPHCGQVHPGRAA", "soluble on expression in E. coli": "soluble"}, {"sequence": "MGSDKIHHHHHHLKQFRRNYSDPNRGPTGKGVAKYQALKHTCQVCPSKMKCCPKADARKITREEHEDARQVARKIAETKQYVISMRLKKKVEMLFAHLKRILGLGRLRLRDPSRDHGYAMTLPGTACSASDEFLLAATAQNLRKLAKTFPAPQQTRKA", "soluble on expression in E. coli": "not soluble"}, {"sequence": "AHHHHHHGSGMKYLIKLKYIKPAQLAVNREQKLAEFYPIFEDGTLGRVEAKARVFLPEYSDFAKGLGFEVKKRRMITEDDYAYLRAMVYGVVMGVLRNPGDWRRLEERVLEMEPIELRYWASKFRNAYWKYKNMRKLMFLARRFMEVEMI", "soluble on expression in E. coli": "not soluble"}, {"sequence": "MSILLVKNAQIVNDDAIFVADILIEDGIIQNVAPNLEAPEGAEVLDAAGKLALPAGIDVYTQVTDSSVDDLSTGCKSAIAGGTGTIVEVVRPRGAESVVSAVKRVKNQLEKSGISCHVALSVAITDFCEQEMSELVKNEGINSFVLDGVSLTDDKLLELFEHVKRLGALIRVVPENKSIVAMLEKKMLKLGVTGPEGFPQSRPESLEADRVSGVCVLGNLASCPISIVQVSSADSLAAIEKARASGALAHAEIASAAVTADGSALFSQDLRFASAHLTDVPLRRGAPDRMIGALSTQPLVVCTSGHRPVNSATRVAAKDFAIAQKGSTGAEERMAVVWERAVRSGRIDAMRFVAVTSTNAAKMFNMYPKKGRIAVGADADLVIWDASGKRVLESSRAQSSQENSMYDGLTVHSVVTATIVGGKIAYQNGEVREAPVAGGFLRLSPNSPYLFSMVGQRDKFANVERVEREASSQQQKPQQNGHHKNSGDFDRNRTKVMESSIDFGGSAANRPRNPPGGRTTGFW", "soluble on expression in E. coli": "not soluble"}, {"sequence": "MGHHHHHHGGHMSLTVPDFQAFMRPMLEQISSGEPQKIAELYRRLAEFFALTPQDTEELLPSGKQAKYHNRILWAKFHLDRAGVLTTPSRGVVQITPLGREFLSRYPEHIGMRELQTIPAYAEFTRRSRSPAQSPAPAAPPQAECSASVPPAEQIDALYAELTANLAEELLAQVKELSPAQFERLVVEVLVAMGYGGSVRDAGQALGRSGDNGIDGLIKQDPLGLDRIYLQAKRWKNTVHSPEIRTFSGSLTYHKATKGVFITTSGFSDGAKATAGQIGNIILLDGETLAHLMIEYGVGVLTRETYQIRRLDADYFEELEGGS", "soluble on expression in E. coli": "soluble"}]}]}
